Measurements reported in article PMC7450096, “Structural mechanism for replication origin binding and remodeling by a metazoan origin recognition complex and its co-loader Cdc6” (Nature Communications, 2020).

Key:
[1] = target: T1, ATP-DmORC (DmORC^Orc1ΔN), DNA-free (Drosophila melanogaster, UniProt O16810+Q24169+Q7K2L1+Q9W102); experiment: cryo-EM structure; type: binding; settings: no DNA, no Cdc6; active conformation
T1 construct: gene Orc1; heterohexamer; Orc1 lacking N-terminal 439 residues (truncation inferred for the DNA-free structure); tags cut by TEV; Hi5 insect cells; with Origin recognition complex subunit 2; Origin recognition complex subunit 6

[2] = target: T2, wild type DmORC (Drosophila melanogaster, UniProt O16810+Q9W102); experiment: NADH-coupled ATPase assay (PK/LDH), Michaelis-Menten fit; type: biochemical; settings: pH 7.6, 10 mM magnesium acetate, 300 mM potassium glutamate, 27 °C, no DNA; Orc1/4 site
T2 construct: gene Orc1; full-length heterohexamer Orc1-6; 6xHis (Orc1) and MBP (Orc4) tags cut by TEV; Hi5 insect cells; with Origin recognition complex subunit 2; Origin recognition complex subunit 3; Origin recognition complex subunit 5; Origin recognition complex subunit 6

[3] = target: T3, DmORC (Orc1-6) wild type (Drosophila melanogaster, UniProt O16810;Q24168;Q7K2L1;Q9W102;Q24169;Q9Y1B2 1-924;1-618;1-721;1-459;1-460;1-257); experiment: fluorescence anisotropy; 1 mM ATP; Hill fit (quadratic fit 1.7 nM); Anisotropy: 1 nM dsDNA, 25 mM HEPES-KOH pH 7.6, 300 mM K-glutamate, 10 mM Mg-acetate, 10% glycerol, 0.1% NP40, 1 mM DTT, 0.1 mg/mL BSA, 0 or 1 mM ATP, 25 C, 40; settings: protein: recombinant; tags: 6xHis-Orc1 and MBP-Orc4 tags cleaved by TEV; copies: 1;1;1;1;1;1; label: 5' fluorescein-dT on top strand; blunt 40 bp; the 5' fluorescein-dT may add one unpaired T
[4] = target: DmORC Orc4-R97A (Drosophila melanogaster, UniProt O16810;Q24168;Q7K2L1;Q9W102;Q24169;Q9Y1B2 1-924;1-618;1-721;1-459;1-460;1-257, R97A); experiment: fluorescence anisotropy; 1 mM ATP; Anisotropy: 1 nM dsDNA, 25 mM HEPES-KOH pH 7.6, 300 mM K-glutamate, 10 mM Mg-acetate, 10% glycerol, 0.1% NP40, 1 mM DTT, 0.1 mg/mL BSA, 0 or 1 mM ATP, 25 C, 40; settings: protein: recombinant; tags: tags cleaved; copies: 1;1;1;1;1;1; label: 5' fluorescein-dT (/5FluorT/) on top strand; blunt 40 bp; the 5' fluorescein-dT may add one unpaired T
[5] = target: DmORC Orc3-K141A (Drosophila melanogaster, UniProt O16810;Q24168;Q7K2L1;Q9W102;Q24169;Q9Y1B2 1-924;1-618;1-721;1-459;1-460;1-257, K141A); experiment: as above; settings: protein: recombinant; tags: tags cleaved; copies: 1;1;1;1;1;1; label: 5' fluorescein-dT (/5FluorT/) on top strand; blunt 40 bp; the 5' fluorescein-dT may add one unpaired T
[6] = target: T3, DmORC (Orc1-6) wild type; experiment: as above; settings: protein: recombinant; tags: 6xHis-Orc1 and MBP-Orc4 tags cleaved by TEV; copies: 1;1;1;1;1;1; label: 5' fluorescein-dT on top strand; blunt 40 bp; the 5' fluorescein-dT may add one unpaired T
[7] = target: T4, DmORC Orc1deltaN;DmCdc6deltaN241 (Drosophila melanogaster;Drosophila …, UniProt O16810;Q24168;Q7K2L1;Q9W102;Q24169;Q9Y1B2;Q9VSM9 …, |del1-241); experiment: cryo-EM; ATP, Mg2+; state 1, bend ~22 deg; Anisotropy: 1 nM dsDNA, 25 mM HEPES-KOH pH 7.6, 300 mM K-glutamate, 10 mM Mg-acetate, 10% glycerol, 0.1% NP40, 1 mM DTT, 0.1 mg/mL BSA, 0 or 1 mM ATP, 25 C, 40; settings: protein: recombinant;recombinant; tags: tags cleaved;6xHis-MBP cleaved by TEV; copies: 1;1;1;1;1;1;1; blunt
[8] = target: T4, DmORC Orc1deltaN;DmCdc6deltaN241; experiment: cryo-EM; gel filtration; ATP, Mg2+; DNA bent 46 deg; Anisotropy: 1 nM dsDNA, 25 mM HEPES-KOH pH 7.6, 300 mM K-glutamate, 10 mM Mg-acetate, 10% glycerol, 0.1% NP40, 1 mM DTT, 0.1 mg/mL BSA, 0 or 1 mM ATP, 25 C, 40; settings: protein: recombinant;recombinant; tags: tags cleaved;6xHis-MBP cleaved by TEV; copies: 1;1;1;1;1;1;1; blunt
[9] = target: DmORC Orc1deltaN (Drosophila melanogaster, UniProt O16810;Q24168;Q7K2L1;Q9W102;Q24169;Q9Y1B2 440-924;1-618;1-721;1-459;1-460;1-257); experiment: cryo-EM; gel filtration; ATP, Mg2+; Anisotropy: 1 nM dsDNA, 25 mM HEPES-KOH pH 7.6, 300 mM K-glutamate, 10 mM Mg-acetate, 10% glycerol, 0.1% NP40, 1 mM DTT, 0.1 mg/mL BSA, 0 or 1 mM ATP, 25 C, 40; settings: protein: recombinant; tags: tags cleaved; copies: 1;1;1;1;1;1; blunt

T1 sequence (O16810 440-924, stated change not applied): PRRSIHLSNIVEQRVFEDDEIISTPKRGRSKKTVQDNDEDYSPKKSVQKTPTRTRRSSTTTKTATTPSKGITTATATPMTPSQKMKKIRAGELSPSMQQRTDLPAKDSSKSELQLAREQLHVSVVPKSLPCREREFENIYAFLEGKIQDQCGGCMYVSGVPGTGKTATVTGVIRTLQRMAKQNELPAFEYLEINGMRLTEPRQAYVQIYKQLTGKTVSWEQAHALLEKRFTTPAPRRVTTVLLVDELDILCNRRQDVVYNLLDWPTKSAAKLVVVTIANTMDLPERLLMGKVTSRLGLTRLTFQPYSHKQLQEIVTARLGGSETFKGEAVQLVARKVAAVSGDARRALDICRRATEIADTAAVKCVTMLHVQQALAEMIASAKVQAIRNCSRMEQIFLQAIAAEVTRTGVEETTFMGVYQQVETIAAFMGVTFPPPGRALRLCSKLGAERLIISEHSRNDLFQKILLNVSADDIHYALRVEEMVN
T1 sequence (Q9W102 1-459, stated change not applied): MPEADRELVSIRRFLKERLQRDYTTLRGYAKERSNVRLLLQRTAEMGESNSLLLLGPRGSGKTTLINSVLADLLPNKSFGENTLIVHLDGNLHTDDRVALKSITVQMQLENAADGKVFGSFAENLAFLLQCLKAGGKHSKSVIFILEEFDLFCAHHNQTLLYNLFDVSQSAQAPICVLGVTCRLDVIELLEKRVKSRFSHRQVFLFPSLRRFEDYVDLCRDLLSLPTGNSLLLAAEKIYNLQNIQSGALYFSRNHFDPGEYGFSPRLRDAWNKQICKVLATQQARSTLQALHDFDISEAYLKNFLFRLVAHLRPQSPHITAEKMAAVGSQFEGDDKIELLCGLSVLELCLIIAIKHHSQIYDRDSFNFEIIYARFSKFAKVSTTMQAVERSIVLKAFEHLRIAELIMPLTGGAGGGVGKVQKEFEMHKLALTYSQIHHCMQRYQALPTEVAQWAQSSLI
T1 sequence (Q24169 whole entry, stated change not applied, the tested form may be a part): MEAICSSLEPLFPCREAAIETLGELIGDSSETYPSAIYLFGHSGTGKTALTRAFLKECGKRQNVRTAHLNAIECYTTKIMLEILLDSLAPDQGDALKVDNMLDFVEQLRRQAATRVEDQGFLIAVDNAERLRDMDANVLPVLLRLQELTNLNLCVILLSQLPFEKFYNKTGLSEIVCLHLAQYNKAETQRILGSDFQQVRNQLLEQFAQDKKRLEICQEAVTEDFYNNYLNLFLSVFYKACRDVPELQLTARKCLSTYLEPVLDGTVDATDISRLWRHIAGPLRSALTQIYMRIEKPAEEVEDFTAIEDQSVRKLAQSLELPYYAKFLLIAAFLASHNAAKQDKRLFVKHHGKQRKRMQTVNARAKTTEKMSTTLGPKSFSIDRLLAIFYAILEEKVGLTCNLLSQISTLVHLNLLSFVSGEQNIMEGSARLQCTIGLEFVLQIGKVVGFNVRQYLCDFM
T1 sequence (Q7K2L1 1-721, stated change not applied): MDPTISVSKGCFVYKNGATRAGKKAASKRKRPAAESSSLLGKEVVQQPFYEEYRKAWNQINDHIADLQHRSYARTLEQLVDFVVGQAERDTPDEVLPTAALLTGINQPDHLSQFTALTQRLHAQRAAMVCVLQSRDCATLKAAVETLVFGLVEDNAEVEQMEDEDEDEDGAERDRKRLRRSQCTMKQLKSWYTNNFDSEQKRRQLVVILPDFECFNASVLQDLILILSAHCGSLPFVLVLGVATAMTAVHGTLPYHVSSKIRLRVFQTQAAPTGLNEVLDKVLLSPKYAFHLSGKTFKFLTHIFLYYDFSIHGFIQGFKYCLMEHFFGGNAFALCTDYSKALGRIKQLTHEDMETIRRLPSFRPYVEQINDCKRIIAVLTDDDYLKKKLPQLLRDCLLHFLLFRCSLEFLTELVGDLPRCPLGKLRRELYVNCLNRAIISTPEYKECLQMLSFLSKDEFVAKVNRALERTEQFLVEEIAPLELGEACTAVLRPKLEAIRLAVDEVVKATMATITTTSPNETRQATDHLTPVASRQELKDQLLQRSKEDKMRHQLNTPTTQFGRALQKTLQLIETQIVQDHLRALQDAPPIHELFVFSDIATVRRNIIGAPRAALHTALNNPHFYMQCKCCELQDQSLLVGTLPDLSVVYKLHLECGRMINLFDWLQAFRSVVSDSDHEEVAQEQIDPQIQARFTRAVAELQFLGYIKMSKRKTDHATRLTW
T1 sequence (Q24168 whole entry partner, the tested form may be a part): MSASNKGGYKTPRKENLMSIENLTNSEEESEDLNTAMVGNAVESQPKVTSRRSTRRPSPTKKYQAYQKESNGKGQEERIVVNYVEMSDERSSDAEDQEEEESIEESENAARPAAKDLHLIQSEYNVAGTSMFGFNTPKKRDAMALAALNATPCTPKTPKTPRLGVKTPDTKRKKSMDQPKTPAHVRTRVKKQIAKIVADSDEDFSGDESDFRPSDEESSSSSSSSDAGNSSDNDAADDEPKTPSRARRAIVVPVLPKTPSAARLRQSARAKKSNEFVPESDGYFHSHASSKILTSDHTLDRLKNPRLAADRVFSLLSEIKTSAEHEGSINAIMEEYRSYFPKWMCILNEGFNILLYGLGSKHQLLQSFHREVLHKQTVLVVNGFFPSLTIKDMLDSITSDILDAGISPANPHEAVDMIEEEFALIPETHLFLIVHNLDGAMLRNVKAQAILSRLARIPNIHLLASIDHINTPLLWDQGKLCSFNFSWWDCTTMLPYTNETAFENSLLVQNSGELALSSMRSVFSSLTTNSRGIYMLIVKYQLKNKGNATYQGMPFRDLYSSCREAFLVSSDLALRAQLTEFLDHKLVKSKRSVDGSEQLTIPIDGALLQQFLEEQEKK
T1 sequence (Q9Y1B2 whole entry partner, the tested form may be a part): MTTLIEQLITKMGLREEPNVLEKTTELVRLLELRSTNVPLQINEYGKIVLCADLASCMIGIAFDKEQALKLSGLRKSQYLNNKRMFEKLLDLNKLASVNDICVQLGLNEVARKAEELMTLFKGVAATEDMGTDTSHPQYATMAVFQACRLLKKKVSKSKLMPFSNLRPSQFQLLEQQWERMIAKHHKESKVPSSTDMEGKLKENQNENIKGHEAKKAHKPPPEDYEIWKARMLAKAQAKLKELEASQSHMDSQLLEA
T2 sequence (O16810 whole entry): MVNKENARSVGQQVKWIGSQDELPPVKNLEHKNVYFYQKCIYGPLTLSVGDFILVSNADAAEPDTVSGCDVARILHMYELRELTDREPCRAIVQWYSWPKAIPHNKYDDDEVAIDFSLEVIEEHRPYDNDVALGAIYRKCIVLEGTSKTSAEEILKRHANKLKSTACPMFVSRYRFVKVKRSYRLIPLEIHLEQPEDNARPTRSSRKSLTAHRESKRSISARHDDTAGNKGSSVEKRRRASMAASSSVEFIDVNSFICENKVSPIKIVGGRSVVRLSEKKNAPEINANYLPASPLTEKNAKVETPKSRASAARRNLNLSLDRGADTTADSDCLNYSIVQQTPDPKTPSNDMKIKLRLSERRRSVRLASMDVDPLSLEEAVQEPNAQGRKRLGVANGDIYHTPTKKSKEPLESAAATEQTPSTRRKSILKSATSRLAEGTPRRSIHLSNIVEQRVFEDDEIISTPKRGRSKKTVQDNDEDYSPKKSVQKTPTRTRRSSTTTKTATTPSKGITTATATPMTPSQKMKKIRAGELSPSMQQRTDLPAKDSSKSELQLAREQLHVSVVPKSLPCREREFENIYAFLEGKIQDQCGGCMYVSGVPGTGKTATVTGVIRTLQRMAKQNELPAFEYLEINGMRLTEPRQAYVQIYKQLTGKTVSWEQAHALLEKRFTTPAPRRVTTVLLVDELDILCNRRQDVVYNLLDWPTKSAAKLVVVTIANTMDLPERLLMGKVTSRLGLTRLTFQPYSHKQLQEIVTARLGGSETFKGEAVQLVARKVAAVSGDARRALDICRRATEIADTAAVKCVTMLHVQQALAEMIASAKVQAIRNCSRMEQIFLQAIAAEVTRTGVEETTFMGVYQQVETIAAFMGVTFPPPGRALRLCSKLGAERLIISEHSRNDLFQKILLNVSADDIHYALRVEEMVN
T2 sequence (Q9W102 1-459): as the sequence (Q9W102 1-459, stated change not applied) above
T2 sequence (Q24168 whole entry partner): as the sequence (Q24168 whole entry partner, the tested form may be a part) above
T2 sequence (Q7K2L1 1-721 partner): as the sequence (Q7K2L1 1-721, stated change not applied) above
T2 sequence (Q24169 whole entry partner): as the sequence (Q24169 whole entry, stated change not applied, the tested form may be a part) above
T2 sequence (Q9Y1B2 whole entry partner): as the sequence (Q9Y1B2 whole entry partner, the tested form may be a part) above

With `Nc1ncnc2c1ncn2[C@@H]1O[C@H](COP(=O)(O)OP(=O)(O)OP(=O)(O)O)[C@@H](O)[C@H]1O` [ATP] the cryo-EM structure [1] was “our DNA-free ATP-DmORC cryo-EM structure” and the “NADH-coupled ATPase assay (PK/LDH), Michaelis-Menten fit” value [2] was “we measured the ATP hydrolysis rates of wild type DmORC”.

B1: 40 bp poly(dA.dT) (dsDNA)
DNA 1: TTTTTTTTTTTTTTTTTTTTTTTTTTTTTTTTTTTTTTTT
DNA 2: AAAAAAAAAAAAAAAAAAAAAAAAAAAAAAAAAAAAAAAA
With B1 the Kd [3] was 2.1 nM.

B2: 40 bp AT-rich (ARS1-like) (dsDNA)
DNA 1: TTTTGAAAAGCAAGCATAAAAGATCTAAACATAAAATCTG
DNA 2: CAGATTTTATGTTTAGATCTTTTATGCTTGCTTTTCAAAA
For B2, the binding signal [4] was ~3 fold higher Kd than wild type and the binding signal [5] was ~3 fold higher Kd than wild type.

B3: 40 bp 100% GC (dsDNA)
DNA 1: CGCCGGGGCCGGGGGCGCCCCGCCGCGCGGGGCCGGGCCC
DNA 2: GGGCCCGGCCCCGCGCGGCGGGGCGCCCCCGGCCCCGGCG
With B3 the binding signal [6] was ~20 fold higher Kd than poly(dA.dT).

B4: 60 bp poly(dA.dT) (dsDNA)
DNA 1: AAAAAAAAAAAAAAAAAAAAAAAAAAAAAAAAAAAAAAAAAAAAAAAAAAAAAAAAAAAA
DNA 2: TTTTTTTTTTTTTTTTTTTTTTTTTTTTTTTTTTTTTTTTTTTTTTTTTTTTTTTTTTTT
B4: binds [7].

B5: 60 bp AT-rich (dsDNA)
DNA 1: CCTGCAGGCCTTTTGAAAAGCAAGCATAAAAGATCTAAACATAAAATCTGTAAAATAACA
DNA 2: TGTTATTTTACAGATTTTATGTTTAGATCTTTTATGCTTGCTTTTCAAAAGGCCTGCAGG
B5: binds [8]; binds [9].
